Test results published in patent US20230201308A1, “TREATMENT OF CORONAVIRUS INFECTION WITH […]” (Eiger Biopharmaceuticals, Inc., priority 2020, published 2023).
Like-named read-outs stand apart in the source and are kept apart here.

System: SARS-CoV-2
[1] = High risk population, Brazil and Toronto, N = 709
[2] = High risk population, Brazil and Toronto, N = 709 vs placebo N = 836
[3] = High risk population, Brazil, N = 698

B1: pegylated interferon lambda-1a (protein)
chain: MKPTTTGKGCHIGRFKSLSPQELASFKKARDALEESLKLKNWSCSSPVFPGNWDLRLLQVRERPVALEAELALTLKVLEAAAGPALEDVLDQPLHTLHHILSQLQACIQPQPTAGPRPRGRLHHWLHRLQEAPKKESAGCLEASVTFNLFRLLTRDLKYVADGNLSLRTSTHPEST
modifications: PEG
notes: 180 mcg subcutaneous injection
ER visit ≥6 h or hospitalization due to COVID-19: events/patients (All): 25/931
All cause death or hospitalization for COVID-19: events/patients (All, Brazil+Toronto): 24/931
All cause death or hospitalization for COVID-19: Bayes prob, Dichotomous (All, vs placebo): 0.951
All cause death or hospitalization for COVID-19: Bayes prob, TTE (All, vs placebo): 0.9557
All cause death or hospitalization for COVID-19: HR (95% CrI), TTE (All, vs placebo): 0.65 (0.39, 1.05)
All cause death or hospitalization for COVID-19: RR (95% CrI), Dichotomous (All, vs placebo): 0.66 (0.40, 1.07)
ER visit ≥6 h or hospitalization due to COVID-19: Bayes prob, Dichotomous (All, vs placebo): 0.999
ER visit ≥6 h or hospitalization due to COVID-19: Bayes prob, TTE (All, vs placebo): 0.9995
ER visit ≥6 h or hospitalization due to COVID-19: HR (95% CrI), TTE (All, vs placebo): 0.47 (0.29, 0.73)
ER visit ≥6 h or hospitalization due to COVID-19: RR (95% CrI), Dichotomous (All, vs placebo): 0.49 (0.30, 0.76)
HR, all-cause mortality or hospitalization due to COVID-19, Time-to-Event analysis (Brazil+Toronto combined): 0.65
RR, all-cause mortality or hospitalization due to COVID-19 (Brazil+Toronto combined): 0.66
All cause ER visit >6 h, hospitalization, or death: percentage [1]: (4.2%)
All cause ER visit >6 h, hospitalization, or death: total [1]: 30
All cause ER visit, hospitalization, or death: percentage [1]: (13.7%)
All cause ER visit, hospitalization, or death: total [1]: 97
All cause death or hospitalization due to COVID-19: percentage [1]: (3.1%)
All cause death or hospitalization due to COVID-19: total [1]: 22
Days of hospitalization [1]: 0 days
Days on mechanical ventilation [1]: 0 days
Days to recovery: median [1]: 14 days
Death due to COVID-19: percentage [1]: (0.1%)
Death due to COVID-19: total [1]: 1
Death or hospitalization due to COVID-19: percentage [1]: (2.8%)
Death or hospitalization due to COVID-19: total [1]: 20
Hospitalization for COVID-19 (excluding those resulting in death): percentage [1]: (2.7%)
Hospitalization for COVID-19 (excluding those resulting in death): total [1]: 19
Hospitalization or ER (any duration) for COVID-19: percentage [1]: (10.7%)
Hospitalization or ER (any duration) for COVID-19: total [1]: 76
Hospitalization or ER >6 h for COVID-19: percentage [1]: (3.1%)
Hospitalization or ER >6 h for COVID-19: total [1]: 22
Mechanical ventilation: percentage [1]: (0.6%)
Mechanical ventilation: total [1]: 4
All cause ER visit >6 h, hospitalization, or death: Pr (Superiority) [2]: 0.983
All cause ER visit >6 h, hospitalization, or death: RR (95% CrI), estimated treatment effect [2]: 0.64 (0.41, 0.97)
All cause ER visit, hospitalization, or death: Pr (Superiority) [2]: 0.887
All cause ER visit, hospitalization, or death: RR (95% CrI), estimated treatment effect [2]: 0.86 (0.68, 1.10)
All cause death or hospitalization due to COVID-19: Pr (Superiority) [2]: 0.927
All cause death or hospitalization due to COVID-19: RR (95% CrI), estimated treatment effect [2]: 0.69 (0.41, 1.14)
Days of hospitalization: MD (95% CrI), estimated treatment effect [2]: −1.39 (−4.38, 1.20)
Days of hospitalization: Pr (Superiority) [2]: 0.8509
Days on mechanical ventilation: MD (95% CrI), estimated treatment effect [2]: −4.47 (−6.89, 3.09)
Days on mechanical ventilation: Pr (Superiority) [2]: 0.9052
Days to death for COVID-19: HR (95% CrI), estimated treatment effect [2]: 0.23 (0.01, 1.95)
Days to death for COVID-19: Pr (Superiority) [2]: 0.9040
Days to hospitalization for COVID-19: HR (95% CrI), estimated treatment effect [2]: 0.57 (0.33, 0.99)
Days to hospitalization for COVID-19: Pr (Superiority) [2]: 0.9770
Days to hospitalization or ER visit >6 h for COVID-19: HR (95% CrI), estimated treatment effect [2]: 0.47 (0.29, 0.74)
Days to hospitalization or ER visit >6 h for COVID-19: Pr (Superiority) [2]: 0.9992
Days to hospitalization or death for COVID-19: HR (95% CrI), estimated treatment effect [2]: 0.61 (0.35, 1.07)
Days to hospitalization or death for COVID-19: Pr (Superiority) [2]: 0.9610
Days to recovery: HR (95% CrI), estimated treatment effect [2]: 0.93 (0.83, 1.04)
Days to recovery: Pr (Superiority) [2]: 0.8862
Death due to COVID-19: Pr (Superiority) [2]: 0.847
Death due to COVID-19: RR (95% CrI), estimated treatment effect [2]: 0.42 (0.05, 2.06)
Death or hospitalization due to COVID-19: Pr (Superiority) [2]: 0.961
Death or hospitalization due to COVID-19: RR (95% CrI), estimated treatment effect [2]: 0.63 (0.37, 1.05)
Hospitalization for COVID-19 (excluding those resulting in death): Pr (Superiority) [2]: 0.931
Hospitalization for COVID-19 (excluding those resulting in death): RR (95% CrI), estimated treatment effect [2]: 0.67 (0.38, 1.14)
Hospitalization or ER (any duration) for COVID-19: Pr (Superiority) [2]: 0.992
Hospitalization or ER (any duration) for COVID-19: RR (95% CrI), estimated treatment effect [2]: 0.72 (0.55, 0.94)
Hospitalization or ER >6 h for COVID-19: Pr (Superiority) [2]: 0.999
Hospitalization or ER >6 h for COVID-19: RR (95% CI), estimated treatment effect [2]: 0.49 (0.30, 0.78)
Mechanical ventilation: Pr (Superiority) [2]: 0.716
Mechanical ventilation: RR (95% CrI), estimated treatment effect [2]: 0.72 (0.21, 2.20)
All cause ER visit >6 h, hospitalization, or death: percentage [3]: (4.3%)
All cause ER visit >6 h, hospitalization, or death: total [3]: 30
All cause ER visit, hospitalization, or death: percentage [3]: (13.9%)
All cause ER visit, hospitalization, or death: total [3]: 97
All cause death or hospitalization due to COVID-19: percentage [3]: (3.2%)
All cause death or hospitalization due to COVID-19: total [3]: 22
Days of hospitalization [3]: 0 days
Days on mechanical ventilation [3]: 0 days
Days to recovery: median [3]: 14 days
Death due to COVID-19: percentage [3]: (0.1%)
Death due to COVID-19: total [3]: 1
Death or hospitalization due to COVID-19: percentage [3]: (2.9%)
Death or hospitalization due to COVID-19: total [3]: 20
Hospitalization for COVID-19 (excluding those resulting in death): percentage [3]: (2.7%)
Hospitalization for COVID-19 (excluding those resulting in death): total [3]: 19
Hospitalization or ER (any duration) for COVID-19: percentage [3]: (10.9%)
